The values that follow come from paper PMC5615036, “Crystal structure of an ASCH protein from Zymomonas mobilis and its ribonuclease activity specific for single-stranded RNA”.

This series concerns the target T1, ZmASCH wild-type (Zymomonas mobilis ZM4, UniProt Q5NP14 1-148).
T1 sequence: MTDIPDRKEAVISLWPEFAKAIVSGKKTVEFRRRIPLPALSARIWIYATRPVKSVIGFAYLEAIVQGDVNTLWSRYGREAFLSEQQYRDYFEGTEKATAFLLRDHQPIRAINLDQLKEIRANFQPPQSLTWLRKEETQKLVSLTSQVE
As to the kind of experiment: EMSA; 10 mM Mg2+; bound, not degraded; EMSA: 20 mM Tris-HCl pH 7.5, 10 mM Mg acetate, 300 mM KCl, 100 ng/uL BSA, 100 ng/uL heparin, 30 min at 310 K; nuclease assay: 20 mM Tris-HCl pH 8.0, 100 mM KCl, 100 ng/uL BSA, with or without 10 mM divalent metal, 310 K. The following applies: protein: recombinant; tags: N-terminal His6; label: 5'-32P; single strand.

B1: ssDNA(30mer) (ssDNA)
DNA: ATCAGCTCGTCACAACATTACTTCATCAAC
With B1, the binding result was “binds”.
